The source of these data is patent US20180155451A1 (published 2018).

The target in test [1] is T1, FcγRIIb extracellular domain with C-terminal His tag (human, UniProt P31994 43-217).
T1 construct: extracellular domain; soluble receptor expressed in FreeStyle293 cells, used as analyte in Biacore; also called FcgRIIb; 2b; not shown: His tag attached to the C terminus
T1 sequence (looked up): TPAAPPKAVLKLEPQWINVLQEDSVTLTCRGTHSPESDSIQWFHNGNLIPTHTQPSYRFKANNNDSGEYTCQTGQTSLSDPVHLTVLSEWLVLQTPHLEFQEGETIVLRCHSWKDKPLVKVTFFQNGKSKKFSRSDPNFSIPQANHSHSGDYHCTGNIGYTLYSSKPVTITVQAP
Put plainly: SPR (Biacore), antibody captured on antigen peptide chip, FcγR as analyte; relative binding. On the technique in general: Surface plasmon resonance follows binding to a sensor surface in real time, without labels.

Test [2] concerns the target T2, FcγRIa extracellular domain with C-terminal His tag (human, UniProt P12314 16-292).
T2 construct: extracellular domain; soluble receptor expressed in FreeStyle293 cells, used as analyte in Biacore; also called FcgRI; 1a; not shown: His tag attached to the C terminus
The description is as above.

T2 sequence (P12314 16-292): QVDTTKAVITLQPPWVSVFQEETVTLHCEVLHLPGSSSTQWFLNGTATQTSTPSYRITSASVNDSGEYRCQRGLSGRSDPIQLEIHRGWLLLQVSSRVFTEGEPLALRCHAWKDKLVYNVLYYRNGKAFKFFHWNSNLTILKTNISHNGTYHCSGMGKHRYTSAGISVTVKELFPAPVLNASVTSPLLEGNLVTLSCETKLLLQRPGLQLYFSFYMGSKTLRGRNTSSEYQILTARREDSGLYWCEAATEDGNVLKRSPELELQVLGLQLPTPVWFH

B1: GpH7-A5/GpH7-B3 variant E333_07I/GpL16-k0 (antibody, human IgG1, kappa)
heavy 1: not shown
heavy 2: not shown
light: DIVMTQSPLSLPVTPGEPASISCQASESLVHSNRNTYLHWYLQKPGQSPQLLIYKVSNRFSGVPDRFSGSGSGTDFTLKISRVEAEDVGVYYCSQNTHVPPTFGQGTKVEIERTVAAPSVFIFPPSDEQLKSGTASVVCLLNNFYPREAKVQWKVDNALQSGNSQESVTEQDSKDSTYSLSSTLTLSKADYEKHKVYACEVTHQGLSSPVTKSFNRGEC
notes: heterodimerized anti-glypican-3 IgG1; alteration in the GpH7-B3 chain only; also called He Ab
On to B1, for which the He/Con_2b in test [1] was 96.2 % of control GpH7-A5/GpH7-B3/GpL16-k0 (=100). Besides, in test [2], the He/Con_1a is 102 % of control GpH7-A5/GpH7-B3/GpL16-k0 (=100).

B2: GpH7-A5/GpH7-B3 variant D270_02A/GpL16-k0 (antibody, human IgG1, kappa)
heavy 1: not shown
heavy 2: not shown
light: B1 light
notes: as for B1
Regarding B2, the He/Con_2b in test [1] was 48.3 % of control GpH7-A5/GpH7-B3/GpL16-k0 (=100). Moreover, in test [2], the He/Con_1a was 71.5 % of control GpH7-A5/GpH7-B3/GpL16-k0 (=100).

B3: GpH7-A5/GpH7-B3 variant D270_08L/GpL16-k0 (antibody, human IgG1, kappa)
heavy 1: not shown
heavy 2: not shown
light: B1 light
notes: as for B1
Take B3: the He/Con_2b in test [1] was 53.6 % of control GpH7-A5/GpH7-B3/GpL16-k0 (=100). The He/Con_1a in test [2] was 73.5 % of control GpH7-A5/GpH7-B3/GpL16-k0 (=100).

B4: GpH7-A5/GpH7-B3 variant D270_05P/GpL16-k0 (antibody, human IgG1, kappa)
heavy 1: not shown
heavy 2: not shown
light: B1 light
notes: as for B1
Take B4: in test [1], the He/Con_2b was 13.9 % of control GpH7-A5/GpH7-B3/GpL16-k0 (=100). Also, in test [2], the He/Con_1a is 67.1 % of control GpH7-A5/GpH7-B3/GpL16-k0 (=100).

B5: GpH7-A5/GpH7-B3 variant E269_19Q/GpL16-k0 (antibody, human IgG1, kappa)
heavy 1: not shown
heavy 2: not shown
light: B1 light
notes: as for B1
B5: the He/Con_2b in test [1] is 44.3 % of control GpH7-A5/GpH7-B3/GpL16-k0 (=100). The He/Con_1a in test [2] was 105 % of control GpH7-A5/GpH7-B3/GpL16-k0 (=100).

B6: GpH7-A5/GpH7-B3 variant D270_16H/GpL16-k0 (antibody, human IgG1, kappa)
heavy 1: not shown
heavy 2: not shown
light: B1 light
notes: as for B1
As for B6, the He/Con_2b in test [1] is 47.2 % of control GpH7-A5/GpH7-B3/GpL16-k0 (=100). Also, the He/Con_1a in test [2] was 66 % of control GpH7-A5/GpH7-B3/GpL16-k0 (=100).

B7: GpH7-A5/GpH7-B3 variant P271_06M/GpL16-k0 (antibody, human IgG1, kappa)
heavy 1: not shown
heavy 2: not shown
light: B1 light
notes: as for B1
For the molecule B7, the He/Con_2b in test [1] was 77.5 % of control GpH7-A5/GpH7-B3/GpL16-k0 (=100). The He/Con_1a in test [2] is 102 % of control GpH7-A5/GpH7-B3/GpL16-k0 (=100).

B8: GpH7-A5/GpH7-B3 variant E269_20W/GpL16-k0 (antibody, human IgG1, kappa)
heavy 1: not shown
heavy 2: not shown
light: B1 light
notes: as for B1
Consider B8, for which the He/Con_2b in test [1] was 42.5 % of control GpH7-A5/GpH7-B3/GpL16-k0 (=100). Moreover, in test [2], the He/Con_1a was 105 % of control GpH7-A5/GpH7-B3/GpL16-k0 (=100).

B9: GpH7-A5/GpH7-B3 variant A330_07I/GpL16-k0 (antibody, human IgG1, kappa)
heavy 1: not shown
heavy 2: not shown
light: B1 light
notes: as for B1
Consider B9, for which the He/Con_2b in test [1] is 67.1 % of control GpH7-A5/GpH7-B3/GpL16-k0 (=100). For the same molecule, in test [2], the He/Con_1a was 105 % of control GpH7-A5/GpH7-B3/GpL16-k0 (=100).

B10: GpH7-A5/GpH7-B3 variant D270_18N/GpL16-k0 (antibody, human IgG1, kappa)
heavy 1: not shown
heavy 2: not shown
light: B1 light
notes: as for B1
Consider B10, for which the He/Con_2b in test [1] is 40.3 % of control GpH7-A5/GpH7-B3/GpL16-k0 (=100). For the same molecule, the He/Con_1a in test [2] was 67.8 % of control GpH7-A5/GpH7-B3/GpL16-k0 (=100).

B11: GpH7-A5/GpH7-B3 variant A330_11K/GpL16-k0 (antibody, human IgG1, kappa)
heavy 1: not shown
heavy 2: not shown
light: B1 light
notes: as for B1
On to B11, for which the He/Con_2b in test [1] is 95 % of control GpH7-A5/GpH7-B3/GpL16-k0 (=100). The He/Con_1a in test [2] was 103 % of control GpH7-A5/GpH7-B3/GpL16-k0 (=100).

B12: GpH7-A5/GpH7-B3 variant A330_06M/GpL16-k0 (antibody, human IgG1, kappa)
heavy 1: not shown
heavy 2: not shown
light: B1 light
notes: as for B1
As for B12, the He/Con_2b in test [1] is 80.5 % of control GpH7-A5/GpH7-B3/GpL16-k0 (=100). Also, the He/Con_1a in test [2] is 105 % of control GpH7-A5/GpH7-B3/GpL16-k0 (=100).

B13: GpH7-A5/GpH7-B3 variant P271_04F/GpL16-k0 (antibody, human IgG1, kappa)
heavy 1: not shown
heavy 2: not shown
light: B1 light
notes: as for B1
Take B13: the He/Con_2b in test [1] is 59.5 % of control GpH7-A5/GpH7-B3/GpL16-k0 (=100). Also, the He/Con_1a in test [2] was 102 % of control GpH7-A5/GpH7-B3/GpL16-k0 (=100).

B14: GpH7-A5/GpH7-B3 variant D270_06M/GpL16-k0 (antibody, human IgG1, kappa)
heavy 1: not shown
heavy 2: not shown
light: B1 light
notes: as for B1
On to B14, for which the He/Con_2b in test [1] was 48.2 % of control GpH7-A5/GpH7-B3/GpL16-k0 (=100). Moreover, in test [2], the He/Con_1a is 78.8 % of control GpH7-A5/GpH7-B3/GpL16-k0 (=100).

B15: GpH7-A5/GpH7-B3 variant E333_02A/GpL16-k0 (antibody, human IgG1, kappa)
heavy 1: not shown
heavy 2: not shown
light: B1 light
notes: as for B1
Turning to B15, in test [1], the He/Con_2b was 83.8 % of control GpH7-A5/GpH7-B3/GpL16-k0 (=100). In test [2], the He/Con_1a is 103 % of control GpH7-A5/GpH7-B3/GpL16-k0 (=100).

B16: GpH7-A5/GpH7-B3 variant D270_13S/GpL16-k0 (antibody, human IgG1, kappa)
heavy 1: not shown
heavy 2: not shown
light: B1 light
notes: as for B1
B16: the He/Con_2b in test [1] was 44.2 % of control GpH7-A5/GpH7-B3/GpL16-k0 (=100). In addition, the He/Con_1a in test [2] was 75.3 % of control GpH7-A5/GpH7-B3/GpL16-k0 (=100).

B17: GpH7-A5/GpH7-B3 variant D270_14T/GpL16-k0 (antibody, human IgG1, kappa)
heavy 1: not shown
heavy 2: not shown
light: B1 light
notes: as for B1
On to B17, for which, in test [1], the He/Con_2b was 57.8 % of control GpH7-A5/GpH7-B3/GpL16-k0 (=100). Besides, in test [2], the He/Con_1a is 70.6 % of control GpH7-A5/GpH7-B3/GpL16-k0 (=100).

B18: GpH7-A5/GpH7-B3 variant D270_19Q/GpL16-k0 (antibody, human IgG1, kappa)
heavy 1: not shown
heavy 2: not shown
light: B1 light
notes: as for B1
As for B18, in test [1], the He/Con_2b was 48 % of control GpH7-A5/GpH7-B3/GpL16-k0 (=100). The He/Con_1a in test [2] was 78.2 % of control GpH7-A5/GpH7-B3/GpL16-k0 (=100).

B19: GpH7-A5/GpH7-B3 variant P271_03V/GpL16-k0 (antibody, human IgG1, kappa)
heavy 1: not shown
heavy 2: not shown
light: B1 light
notes: as for B1
As for B19, the He/Con_2b in test [1] was 74.8 % of control GpH7-A5/GpH7-B3/GpL16-k0 (=100). Moreover, the He/Con_1a in test [2] is 102 % of control GpH7-A5/GpH7-B3/GpL16-k0 (=100).

B20: GpH7-A5/GpH7-B3 variant E333_04F/GpL16-k0 (antibody, human IgG1, kappa)
heavy 1: not shown
heavy 2: not shown
light: B1 light
notes: as for B1
As to B20, in test [1], the He/Con_2b is 94.6 % of control GpH7-A5/GpH7-B3/GpL16-k0 (=100). The He/Con_1a in test [2] was 102 % of control GpH7-A5/GpH7-B3/GpL16-k0 (=100).

B21: GpH7-A5/GpH7-B3 variant D270_04F/GpL16-k0 (antibody, human IgG1, kappa)
heavy 1: not shown
heavy 2: not shown
light: B1 light
notes: as for B1
Regarding B21, the He/Con_2b in test [1] was 53.1 % of control GpH7-A5/GpH7-B3/GpL16-k0 (=100). Further, the He/Con_1a in test [2] was 78.1 % of control GpH7-A5/GpH7-B3/GpL16-k0 (=100).

B22: GpH7-A5/GpH7-B3 variant D270_15Y/GpL16-k0 (antibody, human IgG1, kappa)
heavy 1: not shown
heavy 2: not shown
light: B1 light
notes: as for B1
In the case of B22, in test [1], the He/Con_2b was 44.9 % of control GpH7-A5/GpH7-B3/GpL16-k0 (=100). Moreover, the He/Con_1a in test [2] is 68.5 % of control GpH7-A5/GpH7-B3/GpL16-k0 (=100).
